T1: rhesus monkey (Macaca mulatta) CD30 (rhesus monkey, UniProt P28908 19-595 (human entry))
T1 construct: also called mmCD30
T1 chain: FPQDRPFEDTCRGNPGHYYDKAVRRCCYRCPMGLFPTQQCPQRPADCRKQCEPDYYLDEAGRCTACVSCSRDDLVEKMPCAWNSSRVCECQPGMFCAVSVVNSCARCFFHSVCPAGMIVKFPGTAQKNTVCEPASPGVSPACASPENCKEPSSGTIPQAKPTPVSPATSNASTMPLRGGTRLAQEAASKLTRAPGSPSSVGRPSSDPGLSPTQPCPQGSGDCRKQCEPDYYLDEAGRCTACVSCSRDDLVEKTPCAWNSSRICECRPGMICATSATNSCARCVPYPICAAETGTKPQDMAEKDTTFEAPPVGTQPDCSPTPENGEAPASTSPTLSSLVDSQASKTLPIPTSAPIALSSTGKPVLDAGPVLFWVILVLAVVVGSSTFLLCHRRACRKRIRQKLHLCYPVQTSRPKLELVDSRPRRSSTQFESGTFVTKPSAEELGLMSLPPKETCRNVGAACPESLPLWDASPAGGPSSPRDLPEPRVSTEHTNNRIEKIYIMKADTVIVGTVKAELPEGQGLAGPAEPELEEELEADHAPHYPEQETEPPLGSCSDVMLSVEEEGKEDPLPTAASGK

T2: human CD30 (human, UniProt P28908 19-595)
T2 construct: The same molecule is used for CD30 on HL/ALCL/NHL cell lines; also called huCD30; TNFRSF8
T2 sequence: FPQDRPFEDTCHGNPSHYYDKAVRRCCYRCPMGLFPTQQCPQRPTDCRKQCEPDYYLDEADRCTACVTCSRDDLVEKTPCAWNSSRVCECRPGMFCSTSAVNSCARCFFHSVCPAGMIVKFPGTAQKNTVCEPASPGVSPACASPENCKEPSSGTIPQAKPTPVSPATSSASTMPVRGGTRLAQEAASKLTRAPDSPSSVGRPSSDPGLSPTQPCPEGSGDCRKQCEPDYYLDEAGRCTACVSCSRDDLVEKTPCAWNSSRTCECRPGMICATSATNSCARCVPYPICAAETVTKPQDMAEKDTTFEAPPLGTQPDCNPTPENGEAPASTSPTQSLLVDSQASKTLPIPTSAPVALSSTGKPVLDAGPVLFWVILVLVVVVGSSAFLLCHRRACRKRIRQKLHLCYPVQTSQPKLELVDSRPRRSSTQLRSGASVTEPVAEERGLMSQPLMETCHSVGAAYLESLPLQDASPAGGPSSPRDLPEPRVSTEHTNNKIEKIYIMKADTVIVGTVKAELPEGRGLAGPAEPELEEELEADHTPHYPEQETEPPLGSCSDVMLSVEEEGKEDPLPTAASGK


What was measured:
[1] = target: T1, rhesus monkey (Macaca mulatta) CD30; experiment: flow cytometry, Expi293F cells transfected with rhesus monkey CD30
Experimental: Cells (3×10⁴ cells/well) were incubated in polystyrene 96-well round-bottom plates (Greiner bio-one, cat. no. 650180) with serial dilutions of antibodies (ranging from 0.005 to 10 μg/mL in 3-fold dilution steps) in 100 μL staining buffer at 4° C. for 30 min. Experiments were performed in technical duplicate. After washing twice in staining buffer, cells were incubated in 50 μL secondary antibody at 4° C. for 30 min. As a secondary antibody, R-PE-conjugated goat-anti-human IgG (Jackson ImmunoResearch, UK; cat. no. 109⁻¹¹⁶-098) diluted 1:400 in staining buffer was used. Cells were washed twice in staining buffer, resuspended in 30 μL staining buffer containing 0.4% EDTA and analyzed on an iQue Screener (Intellicyt Corporation, USA). Binding curves were analyzed using non-linear regression (sigmoidal dose-response with variable slope) using GraphPad Prism V9.0.0 software (GraphPad Software, San Diego, CA, USA).

human CD30 [2] = target: T2, human CD30; experiment: flow cytometry, L-428 cells, experiment N = 2
human CD30 [3] = target: T2, human CD30; experiment: flow cytometry, KI-JK cells, experiment N = 1
human CD30 [4] = target: T2, human CD30; experiment: flow cytometry, KARPAS-299 cells (ALCL), range of 2 tests
Experimental: (§1) Cells (3×10⁴ cells/well) were incubated in polystyrene 96-well round-bottom plates (Greiner bio-one, cat. no. 650180) with serial dilutions of antibodies (range 0.0046 to 10 μg/mL in 3-fold dilution steps) in 50 μL staining buffer at 4° C. for 30 min. After washing twice in staining buffer, cells were incubated with 50 μL secondary antibody at 4° C. for 30 min. […] Next, cells were washed twice in staining buffer, resuspended in 100 μL staining buffer supplemented with TO-PRO-3 iodide (Thermo Fisher Scientific; cat. no. T3605; 1:8000 dilution) and analyzed on a FACSCelesta flow cytometer (BD Biosciences, USA). Live cells were gated based on FSC/SSC and absence of TOPRO-3 staining. Binding curves were analyzed by non-linear regression of log-transformed data (sigmoidal dose-response with variable slope, four parameters) using GraphPad Prism V7.02 software (GraphPad Software, San Diego, CA, USA).

human CD30 [5] = target: T2, human CD30; experiment: flow cytometry, SR-786 cells (ALCL), average of 3 tests
Experimental: as §1

Binder	EC50 (read off the curve) [1] [µg/mL]	EC50 (human CD30 [2]) [µg/mL]	EC50 (human CD30 [3]) [µg/mL]	EC50 (human CD30 [4]) [µg/mL]	EC50 (human CD30 [5]) [µg/mL]
bsG1-huCD3-FEALxCD30-MDX060-FEAR (bispecific antibody, human IgG1, kappa, lambda, also called bsG1-huCD3xCD30-MDX060) heavy 1: not shown light 1: not shown heavy 2: QVQLQQWGAGLLKPSETLSLTCAVYGGSFSAYYWSWIRQPPGKGLEWIGDINHGGGTNYNPSLKSRVTISVDTSKNQFSLKLNSVTAADTAVYYCASLTAYWGQGSLVTVSSASTKGPSVFPLAPSSKSTSGGTAALGCLVKDYFPEPVTVSWNSGALTSGVHTFPAVLQSSGLYSLSSVVTVPSSSLGTQTYICNVNHKPSNTKVDKRVEPKSCDKTHTCPPCPAPEFEGGPSVFLFPPKPKDTLMISRTPEVTCVVVAVSHEDPEVKFNWYVDGVEVHNAKTKPREEQYNSTYRVVSVLTVLHQDWLNGKEYKCKVSNKALPAPIEKTISKAKGQPREPQVYTLPPSREEMTKNQVSLTCLVKGFYPSDIAVEWESNGQPENNYKTTPPVLDSDGSFFLYSRLTVDKSRWQQGNVFSCSVMHEALHNHYTQKSLSLSPG light 2: DIQMTQSPTSLSASVGDRVTITCRASQGISSWLTWYQQKPEKAPKSLIYAASSLQSGVPSRFSGSGSGTDFTLTISSLQPEDFATYYCQQYDSYPITFGQGTRLEIKRTVAAPSVFIFPPSDEQLKSGTASVVCLLNNFYPREAKVQWKVDNALQSGNSQESVTEQDSKDSTYSLSSTLTLSKADYEKHKVYACEVTHQGLSSPVTKSFNRGEC	~0.2	0.0705	0.16		
bsG1-huCD3-FEALxCD30-MDX060-FERR (bispecific antibody, human IgG1, kappa, lambda, Bispecific IgG1 made by controlled Fab-arm exchange; also called bsIgG1-huCD3-FEALxCD30-MDX060-FERR; bsG1-huCD3×CD30-MDX060) heavy 1: not shown light 1: not shown heavy 2: QVQLQQWGAGLLKPSETLSLTCAVYGGSFSAYYWSWIRQPPGKGLEWIGDINHGGGTNYNPSLKSRVTISVDTSKNQFSLKLNSVTAADTAVYYCASLTAYWGQGSLVTVSSASTKGPSVFPLAPSSKSTSGGTAALGCLVKDYFPEPVTVSWNSGALTSGVHTFPAVLQSSGLYSLSSVVTVPSSSLGTQTYICNVNHKPSNTKVDKRVEPKSCDKTHTCPPCPAPEFERGPSVFLFPPKPKDTLMISRTPEVTCVVVDVSHEDPEVKFNWYVDGVEVHNAKTKPREEQYNSTYRVVSVLTVLHQDWLNGKEYKCKVSNKALPAPIEKTISKAKGQPREPQVYTLPPSREEMTKNQVSLTCLVKGFYPSDIAVEWESNGQPENNYKTTPPVLDSDGSFFLYSRLTVDKSRWQQGNVFSCSVMHEALHNHYTQKSLSLSPG light 2: DIQMTQSPTSLSASVGDRVTITCRASQGISSWLTWYQQKPEKAPKSLIYAASSLQSGVPSRFSGSGSGTDFTLTISSLQPEDFATYYCQQYDSYPITFGQGTRLEIKRTVAAPSVFIFPPSDEQLKSGTASVVCLLNNFYPREAKVQWKVDNALQSGNSQESVTEQDSKDSTYSLSSTLTLSKADYEKHKVYACEVTHQGLSSPVTKSFNRGEC				0.134 to 0.269	0.328

Reference: patent US20260234255A1 (Genmab, published 2026)
